Columns and labels:
[1] = target: LuS-N71-SpyTag (Aquifex aeolicus lumazine synthase nanoparticle with a glycan at N71 and SpyTag at the N-terminus) (Aquifex aeolicus)
[2] = target: ferritin-N96-SpyTag (Helicobacter pylori ferritin nanoparticle with a glycan at N96 and SpyTag) (Helicobacter pylori)

Substance: RSV F-SpyCatcher (respiratory syncytial virus prefusion F 'DS2' trimer with SpyCatcher at the C-terminus)
- percent of nanoparticle subunits conjugated [1]: 67%
- percent of nanoparticle subunits conjugated [2]: 85%

From paper doi:10.1101/2020.06.11.147496
